Assay results as given in patent publication US7250269B2, “Composition for assaying glycoprotein” (Asahi Kasei Pharma Corporation, priority 2001, dated 2007).

What was measured:
Assay type in all cases: biochemical
[1] = molecular target: T1, HSA substrate solution; Albumin Human (Homo sapiens, UniProt P02768); test: Activity of various proteases on HSA substrate solution (released glycated amino acids/peptides assayed with R-FOD); details: pH 8.0; 37° C. for 30 minutes
T1 construct: purchased Sigma-Aldrich Co
Method: (§1) • 1. […] GA % was assayed using a glycated albumin analyzer (GAA-2000, manufactured by ARKRAY, Inc.). • 2. G-II and III substrate solutions, FRA value=48 μmol/L [Globulins Human Cohn Fraction II and III; 16.9 mg/ml (manufactured by Sigma-Aldrich Co.)] • 3. G-IV substrate solution, FRA value=26 μmol/L [Globulins Human Cohn Fraction IV; 6 mg/ml (manufactured by Sigma-Aldrich Co.)] • 4. G-I substrate solution, FRA value=77 μmol/L [Glovenin I: immunoglobulin preparation (manufactured by Takeda Chemical Industries, Ltd.)] • 5. Hb substrate solution: Hemoglobin Human; 55 mg/ml, glycated hemoglobin rate: HbA1c=4.5% [manufactured by Sigma-Aldrich Co., the HbA1c value was determined using a glycated hemoglobin analyzer (Hi-Auto A1C HA-8150, manufactured by ARKRAY, Inc.)].
(§2) 200 μl of a substrate solution other than Hb, 40 μl of 100 mg/ml protease solution (a solution with a concentration as close to 100 mg/ml as possible if a 100 mg/ml solution cannot be prepared, or as is if the protease solution is liquid), and 10 μl of 1 M Tris buffer solution (pH 8) were thoroughly mixed and reacted at 37° C. for 30 minutes. The reaction solution was filtered through 10,000 NMWL membrane (Ultrafree MC, manufactured by Millipore Corp.) The filtrate was served as the protease reaction sample. The same procedure was conducted using distilled water instead of the substrate to prepare a blank sample.
(§3) 300 μl of the above reaction solution for assaying glycated amino acids was added to a cell and incubated for three minutes at 37° C. […] 30 μl of the protease reaction sample was then added to the cell and incubated for five minutes at 37° C. […] The same procedure was conducted using the blank sample instead of the protease reaction sample. Absorbances (A0 blank and A1 blank) were measured. The reaction of protease with glycated proteins is indicated by the following absorbance change. ΔA=(A1−A0)−(A1 blank−A0 blank)

[2] = system: G-I substrate solution (Glovenin I: immunoglobulin preparation); test: Activity of various proteases on G-I substrate solution (R-FOD assay); details: pH 8.0, 37° C. for 30 minutes
Method: as §1, §2, §3

[3] = molecular target: T2, Hb substrate solution: Hemoglobin Human (Homo sapiens, UniProt P68871+P69905); test: Activity of various proteases on Hb substrate solution (R-FOD assay); details: pH 8.0; 37° C. for 60 minutes
T2 construct: purchased Sigma-Aldrich Co
T2 sequence (P69905 2-142 limits assumed): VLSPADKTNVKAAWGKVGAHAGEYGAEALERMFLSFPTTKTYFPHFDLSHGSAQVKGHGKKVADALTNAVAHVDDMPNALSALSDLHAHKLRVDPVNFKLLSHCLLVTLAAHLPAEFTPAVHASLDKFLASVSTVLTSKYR
T2 sequence (P68871 2-147 limits assumed): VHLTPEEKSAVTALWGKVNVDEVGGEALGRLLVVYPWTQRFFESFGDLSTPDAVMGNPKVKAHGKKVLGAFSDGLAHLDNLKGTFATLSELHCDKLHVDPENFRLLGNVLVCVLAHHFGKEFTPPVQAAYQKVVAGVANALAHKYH
Method: as §1
For the Hb substrate solution, 150 μl of the substrate solution, 60 μl of 200 mg/ml protease solution (a solution with a concentration as close to 200 mg/ml as possible if a 200 mg/ml solution cannot be prepared, or as is if the protease solution is liquid), and 5 μl of 1 M Tris buffer solution (pH 8) were thoroughly mixed and reacted at 37° C. for 60 minutes. The reaction solution was filtered through 10,000 NMWL membrane (Ultrafree MC, manufactured by Millipore Corp.). The filtrate was served as the protease reaction sample. The same procedure was conducted using distilled water instead of the substrate to prepare a blank sample.
as §3

[4] = FOD enzyme activity / substrate specificity on glycated lysine; details: glycated lysine / glycated valine
Method: 164 strains of mutant colonies obtained in Example 15 were cultured for 16 hours at 30° C. in 1.5 ml of a 3.7% BHI liquid medium (manufactured by DIFCO Co.) containing 50 μg/ml of ampicillin and 1 mM of IPTG. 1 ml of the culture broth was centrifuged (15,000 G for one minute at 4° C.) to collect cells. 200 μl of 10 mM Tris-HCl buffer solution (pH 8.0) was added to the collected cells. After crushing the cells using an ultrasonic breaker, the mixture was centrifuged (14,000 G for five minutes at 4° C.) to obtain a cell extract as a supernatant.
The glycated amino acid substrate specificity of FOD-mutated recombinant contained in the cell extract prepared in Example 16 was measured using the above-mentioned FOD enzyme activity measuring method.
Synthesis of an oligonucleotide having the base sequence of 1-27 in the sequence table Sequence ID No. 7 was consigned to an outside source (BEX Co., Ltd.). The oligonucleotide was subjected to the site-directed mutagenesis using the Mutan-K kit (manufactured by Takara Shuzo Co., Ltd.) according to the manual attached to the kit. The mutant gene obtained was incorporated again into the expression plasmid pTV119N, introduced into Escherichia coli host, and cultured at 30° C. for 16 hours in a 3.7% BHI liquid medium containing 50 μg/ml of ampicillin and 1 mM of IPTG to produce mutant FOD protein.

B1: Carboxypeptidase Y: protease, origin Yeast (protein, UniProt P00729 112-532, looked up)
Carboxypeptidase Y: KIKDPKILGIDPNVTQYTGYLDVEDEDKHFFFWTFESRNDPAKDPVILWLNGGPGCSSLTGLFFELGPSSIGPDLKPIGNPYSWNSNATVIFLDQPVNVGFSYSGSSGVSNTVAAGKDVYNFLELFFDQFPEYVNKGQDFHIAGESYAGHYIPVFASEILSHKDRNFNLTSVLIGNGLTDPLTQYNYYEPMACGEGGEPSVLPSEECSAMEDSLERCLGLIESCYDSQSVWSCVPATIYCNNAQLAPYQRTGRNVYDIRKDCEGGNLCYPTLQDIDDYLNQDYVKEAVGAEVDHYESCNFDINRNFLFAGDWMKPYHTAVTDLLNQDLPILVYAGDKDFICNWLGNKAWTDVLPWKYDEEFASQKVRNWTASITDEVAGEVKSYKHFTYLRVFNGGHMVPFDVPENALSMVNEWIHGGFSL
[1]
  ΔA HSA: 2 mAbs
[2]
  ΔA Gl: 14 mAbs
[3]
  ΔA Hb: 4 mAbs

B2: Papain: protease, origin Papaya (protein, UniProt P00784 134-345, looked up)
Papain: IPEYVDWRQKGAVTPVKNQGSCGSCWAFSAVVTIEGIIKIRTGNLNEYSEQELLDCDRRSYGCNGGYPWSALQLVAQYGIHYRNTYPYEGVQRYCRSREKGPYAAKTDGVRQVQPYNEGALLYSIANQPVSVVLEAAGKDFQLYRGGIFVGPCGNKVDHAVAAVGYGPNYILIKNSWGTGWGENGYIRIKRGTGNSYGVCGLYTSSFYPVKN
[1]
  ΔA HSA: 15 mAbs
[2]
  ΔA Gl: 5 mAbs
[3]
  ΔA Hb: <1 mAbs

B3: Trypsin: protease, origin Cow pancreas (protein, UniProt P00760 24-246, looked up)
Serine protease 1: IVGGYTCGANTVPYQVSLNSGYHFCGGSLINSQWVVSAAHCYKSGIQVRLGEDNINVVEGNEQFISASKSIVHPSYNSNTLNNDIMLIKLKSAASLNSRVASISLPTSCASAGTQCLISGWGNTKSSGTSYPDVLKCLKAPILSDSSCKSAYPGQITSNMFCAGYLEGGKDSCQGDSGGPVVCSGKLQGIVSWGSGCAQKNKPGVYTKVCNYVSWIKQTIASN
[1]
  ΔA HSA: 11 mAbs
[2]
  ΔA Gl: 15 mAbs
[3]
  ΔA Hb: <1 mAbs

B4: Carboxypeptidase A: protease, origin Cow pancreas (protein, UniProt P00730 111-419, looked up)
Carboxypeptidase A1: ARSTNTFNYATYHTLDEIYDFMDLLVAEHPQLVSKLQIGRSYEGRPIYVLKFSTGGSNRPAIWIDLGIHSREWITQATGVWFAKKFTEDYGQDPSFTAILDSMDIFLEIVTNPDGFAFTHSQNRLWRKTRSVTSSSLCVGVDANRNWDAGFGKAGASSSPCSETYHGKYANSEVEVKSIVDFVKDHGNFKAFLSIHSYSQLLLYPYGYTTQSIPDKTELNQVAKSAVEALKSLYGTSYKYGSIITTIYQASGGSIDWSYNQGIKYSFTFELRDTGRYGFLLPASQIIPTAQETWLGVLTIMEHTLNNLY
[1]
  ΔA HSA: <1 mAbs
[2]
  ΔA Gl: 50 mAbs
[3]
  ΔA Hb: 13 mAbs

B5: Proteinase K: protease, origin Tritirachium (protein, UniProt P06873 106-384, looked up)
Proteinase K: AAQTNAPWGLARISSTSPGTSTYYYDESAGQGSCVYVIDTGIEASHPEFEGRAQMVKTYYYSSRDGNGHGTHCAGTVGSRTYGVAKKTQLFGVKVLDDNGSGQYSTIIAGMDFVASDKNNRNCPKGVVASLSLGGGYSSSVNSAAARLQSSGVMVAVAAGNNNADARNYSPASEPSVCTVGASDRYDRRSSFSNYGSVLDIFGPGTSILSTWIGGSTRSISGTSMATPHVAGLAAYLMTLGKTTAASACRYIADTANKGDLSNIPFGTVNLLAYNNYQA
[1]
  ΔA HSA: 79 mAbs
[2]
  ΔA Gl: 45 mAbs
[3]
  ΔA Hb: 32 mAbs

B6: Alcalase: protease, origin Bacillus (protein, UniProt P00780 106-379, looked up)
Subtilisin Carlsberg: AQTVPYGIPLIKADKVQAQGFKGANVKVAVLDTGIQASHPDLNVVGGASFVAGEAYNTDGNGHGTHVAGTVAALDNTTGVLGVAPSVSLYAVKVLNSSGSGSYSGIVSGIEWATTNGMDVINMSLGGASGSTAMKQAVDNAYAKGVVVVAAAGNSGSSGNTNTIGYPAKYDSVIAVGAVDSNSNRASFSSVGAELEVMAPGAGVYSTYPTNTYATLNGTSMASPHVAGAAALILSKHPNLSASQVRNRLSSTATYLGSSFYYGKGLINVEAAAQ
[1]
  ΔA HSA: 92 mAbs
[2]
  ΔA Gl: 49 mAbs
[3]
  ΔA Hb: 17 mAbs

B7: Reactive 327th amino acid Valine: mutant obtained by replacing the lysine with valine, named FOD-V; plasmid pcmFOD5; Sequence ID No. 4 (protein)
chain: ASTLTKQSQILIVGGGTWGCSTALHLARRGYTNVTVLDVNRIPSPISAGHDVNKLAGRLSTADSKGDDEDSIWKALSYAAAQGWLHDPVFQPFCHNTGSVVAGSTPKSIKQLVEDEIGDDIDQYTPLNTAEDFRKTMPEGILTGNFPGWKGFYKPTGSGWVHARKAMKAAFEESERLGVKFITGSPEGKVESLIFEDGDVRGAKTADGKEHRADRTILSAGASAEFFLDFENQIQPTAWTLGHIQMTPEETKLYKNLPPLFNINQGFFMEPDEDLHQLKMCDEHPGYCNWVEKPGSKYPQSIPFAKHQVPTEAERRMKQFLKDIMPQLADRPLVHARICWCADTQDRMFLITYHPRHPSLVIASGDCGTGYVHITSIGKFISDCMEGTLEERFAKFWRWRPEKFTEFWGKDPLDRFGADDKIMDLPKSDVEGWTNIKNDI
modifications: sequence derived from Fusarium oxysporum IFO- 9722
[4]
  Reactivity ratio, glycated lysine / glycated valine: 1930

B8: Reactive 327th amino acid Lysine (wild type): wild type fructosyl amino acid oxidase (FOD) originating from Fusarium oxysporm IFO-9972, Sequence ID No. 1 (protein)
chain: ASTLTKQSQILIVGGGTWGCSTALHLARRGYTNVTVLDVNRIPSPISAGHDVNKLAGRLSTADSKGDDEDSIWKALSYAAAQGWLHDPVFQPFCHNTGSVVAGSTPKSIKQLVEDEIGDDIDQYTPLNTAEDFRKTMPEGILTGNFPGWKGFYKPTGSGWVHARKAMKAAFEESERLGVKFITGSPEGKVESLIFEDGDVRGAKTADGKEHRADRTILSAGASAEFFLDFENQIQPTAWTLGHIQMTPEETKLYKNLPPLFNINQGFFMEPDEDLHQLKMCDEHPGYCNWVEKPGSKYPQSIPFAKHQVPTEAERRMKQFLKDIMPQLADRPLVHARICWCADTQDRMFLITYHPRHPSLVIASGDCGTGYKHITSIGKFISDCMEGTLEERFAKFWRWRPEKFTEFWGKDPLDRFGADDKIMDLPKSDVEGWTNIKNDI
[4]
  Reactivity ratio, glycated lysine / glycated valine: 9.5
